Test: soluble on expression in E. coli; label from the status in PepcDB or PDB records

Sequence	soluble on expression in E. coli
MVDIPPPFDLACITKKPITKSSPSLLIESDSPDKYKKKKSSFKRFLALTFKKKTENKLHVDVNVSSSRSSSESSYHGPSRILEVDRRSLSNSPQLKSRTGKLRASESPSSLIFYRDGKRKGVPFSRTVSRVESFEDRSRPPFLPLPLTKPRSISFPSADTSDYENIPAMNSDYENIQIPPRRPARAGAFTKLFEDQSRALSTANENDGYVDMSSFNAFESKQQSADQDAESAYTEPYKVCPISSAAPKEDLTSDEEQRSSEEEDSASRDPSVTHKVEGQSRALVIAQELLSSEKAYVEMLQHLNLDFHGAVMRALDDMDHEGRDTLAREELRQGLSELPAIHDLHQGILEELEERLSNWESQQKVADVFLAREQGFDHHATHILQFDRYLGLLSENCLHSPRLAAAVREFEQSVQGGSQTAKHRLLRVVQRLFQYQVLLTDYLNNLCPDSAEYDNTQGALSLISKVTDRANDSMEQGENLQKLVHIEHSVRGQGDLLQPGREFLKEGTLMKVTGKNRRPRHLFLMNDVLLYTYPQKDGKYRLKNTLAVANMKVSRPVMEKVPYALKIETSESCLMLSASSCAERDEWYGCLSRALPEDYKAQALAAFHHSVEIRERLGVSLGERPPTLVPVTHVMMCMNCGCDFSLTLRRHHCHACGKIVCRNCSRNKYPLKYLKDRMAKVCDGCFGELKKRGRAVPGLMRERPVSMSFPLSSPRFSGSAFSSVFQSINPSTFKKQKKVPSALTEVAASGEGSAISGYLSRCKRGKRHWKELWFVIKGKVLYTYMASEDKVALESMPLLGFTIAPEKEEGSSEVGPIFHLYHKKTLFYSFKAEDTNSAQRWIEAMEDASVL	soluble
MEANKREIVDFGGLRSYFFPNLAHYITKNDEELFNNTSQANKLAAFVLGASKDAPGDEDILEMILPNDANAAVIAAGMDVCLLLGDKFRPKFDAAAEKLSGLGHAHDLVSVIDDDKKLGMLARKAKLKKTEDAKILQALLKVIAIDDAAEKFVELTELVSQLDLDFDVYVLTKILGLISEETSDEVDIIRDNVVNAFDSCKPLLKQLMLDGPKSEPADPFISLLMDPLEESVGKVVNHIAQLFEEASKNEGDESLVLRSQLGYQLFFLIVRSLADGKREVSKKILSGIPTSVRAEVFPGLQRSVYKSAVFLGNHIIQVLLGSKKSFEDWDVVGVAKDLESAWKRRAIAELIKKFQVSILEQCFDKPVPLIPQSPLNNDAVIDNVNKALQFALWLTEFYGSENETEALGELRFLDSTSKNLLVDSFKKFVQGINSKTHVTRIVESLEKCCLSDTPSGRKSNVQPSTSQQQDSAYTKEEMTTVHNTYSVNTKAQVLNGLSDTNSSGLLVDSKDSLSLQEISCDEVDSSTLLSSSRNIGEGVTVKAVDPVPEKVNDAQQQQTVNEIEMASDANQDTSSSASPEVAPSFSTDGWDSPTKSVALPPGMQQIDEEETTVADKDSTPQPQARAETAWGSGDATPMPLPAPTNQYKVSGFGEAKVAKGFGQFAPTSSAYGGGGGRGGYGGGDRGGRGGYGGDRGGRGGYGGGDRGGRGGYGGDRGRGGYGGRGGRGGF	not soluble
PQSAVLHYSGSYGIPATMTFERSGNAYKIVSTIKVPLYNIRFESGGTVVGNTLHPTYYRDIRRGKLYAEAKFADGSVTYGKAGESKTEQSPKAMDLFTLAWQLAANDAKLPPGLKITNGKKLYSVGGLNKAGTGKYSIGGVETEVVKYRVRRGDDAV	not soluble
MSKPEFIARQGRKPTGWLGHIVARVMARETRPENDRALSFLDLADGDSLIDIGCGHGETLFQADRIVRLSGSVGVDFSEVMLKRARARNRDAVWDTRMAFHCADTAALPFPDKRFGKALSVHTIYFWPNPAAHLAEAFRVLRRGGRFLFCYRSTADRRAVEEFPDTVYRFPSVQEVEEKLKLVGFLGPETTTEDIKGLEHHHHHH	not soluble
MSAEAAAVEVQANEAPIVAPIMYKVESSDGQVYEISDEAVKQSNTLSNLISTCVANDVASMDPIPITNVTGNIMKMVIEWCEKHKGETLPVEDDSVPKNITVPEWDTNFLKIDNDVLFDLIVASNFLDVPGLMSYACKMVANMAIGKSPDEMRVLFAIPTDEEDEAAEKAAKEKAEAEKKAITEKDAAEPSTSK	soluble
MLSVIGIGPGSQAMMTMEAIEALQAAEIVVGYKTYTHLVKAFTGDKQVIKTGMCREIERCQAAIELAQAGHNVALISSGDAGIYGMAGLVLELVSKQKLDVEVRLIPGMTASIAAASLLGAPLMHDFCHISLSDLLTPWPVIEKRIVAAGEADFVICFYNPRSRGREGHLARAFDLLAASKSAQTPVGVVKSAGRKKEEKWLTTLGDMDFEPVDMTSLVIVGNKTTYVQDGLMITPRGYTL	not soluble
GPGSMSTWEQAVEEADKAFAKRDCKAVCEIIEKAESDGTCHVQLMWRRARALHTLGDESLDKSEKERYARDAAVAAERAVEEDPTSAEANLWKAICIGILCDYLTTKERMSNVYVIRDHLLRSLELKSDNPDALHGMGMWSLSLLQISWFERSAASLLFGSLPTVSHEECLKYFLASHELRPSIRNCLALGNLFRYQGNWTEAKTWYQKALDIPAETHAHKQKQDEAVQLLNSC	soluble
MGSDKIHHHHHHMTQNLRVIIDARMVNKHLHGIARYTYEIIKHMSYEDNVEMILLVNDLEEASKIFGQFNNIKFKRMRSKFLSIFEQIELPMIVNKYKNMAIFHSPSFVASPFIKCKMIMTIHDLNHLKFPQYYTPFHKYYYKYIVKKCALKSKKILTVSEFSKEEIFKWIKCDRDKIKVTYNGIDPKFHVISDAEKLKKIKEKYKLPDRFILYIGNLKPHKNVETLVKAMRFIDGKVKLVINGTINKSISEILDKFNLLEKVKFIGYVNEDELPLLYNLASVFVFPSLYEGFGLPPLEAAVCGCKVIISDISSLSEIMSDYGVKVNPLDSKGMAREIKKILENSSIDICNKEKETFVQKYSWNKTSSKTLEIYKEINKEFL	not soluble
MSLAGKKIVLGVSGGIAAYKTPELVRRLRDRGADVRVAMTEAAKAFITPLSLQAVSGYPVSDSLLDPAAEAAMGHIELGKWADLVILAPATADLIARVAAGMANDLVSTICLATPAPVAVLPAMNQQMYRAAATQHNLEVLASRGLLIWGPDSGSQACGDIGPGRMLDPLTIVDMAVAHFSPVNDLKHLNIMITAGPTREPLDPVRYISNHSSGKMGFAIAAAAARRGANVTLVSGPVSLPTPPFVKRVDVMTALEMEAAVNASVQQQNIFIGCAAVADYRAATVAPEKIKKQATQGDELTIKMVKNPDIVAGVAALKDHRPYVVGFAAETNNVEEYARQKRIRKNLDLICANDVSQPTQGFNSDNNALHLFWQDGDKVLPLERKELLGQLLLDEIVTRYDEKNRR	soluble
MGSDKIHHHHHHNEKQDWVGTWTASPQPTWGTDFALPVKMVPKLENQTIRQTVRTSVGGRRFRIVLSNEYSNVPIQIGEIRAARAGEDSKITAGTDRAVTFGGQAKATVPAGAPLVSDPVELPLDALSRLSISVYLPQPTPIATFHWDGKQTAYIGDGNQTASETIAAAQTTDARTLVSEILVDAPANNGAVIAIGDSITDGNGATLDADNRWPDVLAERLVSKQVSVLNAGISGARLLDDAMGVKASARFNRDVLAQPGVKAVILLIGINDISWPGTPFAPEKSLPSLAALTTGYLQLAAQAHAHNLIIVGGTLTPFEGALSGTPLDAYYTPEKEALRQKVNNWIRTSGAFDAVVDFDLLLRDPLHPTRLLPEFDSGDHLHPGDKGNRAMAEAIDLGQLIKN	not soluble
MGSDKIHHHHHHMDDHGRSRPTQPTLYVLDTNVLIHDPNALLNFQEHRVAIPMTVLEELDKLKTGKHTIAAECRQAIRLIDQVLGEATPEQVEGGVPIQRGKNGPSGSLSILMSKRAEPITWLPEHLNDNKIINQLVELKSRHSGVRVVLVTKDINMRLKARACGVDAEDYHTDQLIDDVALLSRGYHSLAGSFWDRVSKVETRQDHGRTWHRVQLTDNLPAVHINEFIVDEQGFVGWIKGIQQDELTILDLHQEPLLHQEAWGLRPRDVYQSLALYALLDPDIHLVNLSGAAGSGKTILALAAAIEQTMVSKRYRRIIATRSVQGLDEDIGFLPGTEAEKMEPWLGAITDNLEALHMDDECTHGSVDYILSKVPLQFKSLNYIRGRSFQQSLILIDECQNLTPHQMKTIITRAGSGSKVICLGNLAQIDTPYLSATSSGLTYLTERFKDFPHGVHVTLQGVPRSVLAEYAEAHM	not soluble
MDSAREVSDGRLTVEGFSVASRAFADKWKIHNQSFPPWSWVPLINRTLLVSKKEEGYLSLEKIIILSSLEEEIPEDESLNVATDCLEKEETVDHTILVPTMENEAHYYDFHIVYSASYKVPVLYFRGYCSGGEPLALDVIKKDVPSCSVSLLLESKWTFITQEEHPYLNRPWFKLHPCGTEDWIKLLSQSSSSSGCQMPIVLYLVSWFSVVGQVVGLRIPLEMLN	soluble

Source: the DeepSol protein solubility set
